Measured values: publication PMC11607428, “Broadly conserved FlgV controls flagellar assembly and Borrelia burgdorferi dissemination in mice” (Nature Communications, 2024)

Biological target: the molecule itself
Experiment: immunoblot after SDS-PAGE (higher molecular weight band); total protein lysate of WT/pcon ++flgV (PA267) B. burgdorferi, log and stationary phase, boiled in Laemmli buffer with beta-mercaptoethanol, Tris-Glycine gel, probed with anti-FlgV

B1: FlgV (BB0268), B. burgdorferi (natural protein)
chain: MFISRELKYILLTSVSALFISAVLGLFCGLSFFTILVRSLLQFVFFFVIGLLIEYIFKKYLSNLFSTELSGNMENKPQDDKKSDKDFKENLDFQNKNSLYENSQNISSSGDFIEEVKKYKFETEDVSRGSDKNKKMSFIEDNDPKVVADAIKTLMSKKE
notes: FlgV (BB0268) of Borrelia burgdorferi B31; ORF of 480 bp; antigen for the antibody was amino acids 58-159; two predicted transmembrane helices (amino acids 13 to 35 and 40 to 57); native flgV ORF amplified from B. burgdorferi A3 genomic DNA for the overexpression plasmid; Untagged protein; Strains, plasmids and primers are in Supplementary Data 1; also called bb0268 gene product; previously …
With B1 the “stoichiometry N” value was 2.
